US20160333060A1 (UNITED STATES OF AMERICA AS REPRESENTED BY THE SECRETARY …, published 2016)

Biological target: T1, recombinant HIV-1HXB2 gp41 (Vybion Inc.) (HIV-1 HXB2, UniProt P04578 541-682)
T1 construct: domain: gp41; Bought reagent; also called rgp41
Assay: ELISA, plate-bound recombinant HIV-1HXB2 gp41, serial dilutions of rCNID-1-Trx, detection with rabbit anti-CNID-1

B1: recombinant CNID-1 in fusion with thioredoxin (thioredoxin-hexahistidine-CNID-1) (other)
chain: GRATLGQLKTSTIPPVTFDVPFDGANIPQDVRFTIATVNGGKGALYNAELGESAGHTIVLESDGDHPIPGTFDPKSGRGLDYLPRGLVLFSSHNYVGNMKMYTEPDSDITADFPPGTPFGVSSAITGEGSAFQLNTGIDHTGEFEIIPPNTKRNLAGVFDNEIRSVSPTGGK
modifications: Europium label in the reference-protein ELISA only; otherwise none stated
notes: The N-terminal residue of native CNID-1 is sarcosine; also called rCNID-1-Trx; CNID-1-Trx; not shown: N-terminal thioredoxin (Trx) encoded by the Novagen pET32b(+) Trx fusion vector
- binding result: no binding
